This note sets out measurements from the Immune Epitope Database (IEDB).

The target of test [1] is HLA-B*51:01. The test is described as follows: IEDB peptide-MHC binding, purified MHC/direct/fluorescence; filed as Kd, often an IC50 or EC50 that approximates it; ≥ and ≤ were set here for values at or beyond the usual limits of such assays.
For another test, the target named is HLA-A*01:01. The test is described as above.
In the next test the target is HLA-A*02:01. Described as above.
In test [2] the target is HLA-A*03:01. The test is described as above.
A further test has as its target HLA-A*11:01. Described as above.
The target of test [3] is HLA-A*26:01. Described as above. To be noted: source organism: Bacillus licheniformis.
In test [4] the target is HLA-A*31:01. Described as above.
The target of the next test is HLA-A*69:01. Described as above.
Another test concerns the target HLA-B*07:02. The description is as above.
Test [5] concerns the target HLA-B*08:01. The description is as above.
Test [6] deals with HLA-B*15:01. The test is described as above.
In a further test the target is HLA-B*27:05. The description is as above.
For another test, the target named is HLA-B*40:01. The test is described as above.
The next test has as its target HLA-B*58:01. Described as above.
Test [7] has as its target HLA-B*15:17. The test can be described thus: IEDB peptide-MHC binding, purified MHC/competitive/fluorescence; filed as Kd, often an IC50 or EC50 that approximates it; ≥ and ≤ were set here for values at or beyond the usual limits of such assays.
Test [8] deals with HLA-A*03:01. Described as above.
Test [9] deals with HLA-A*31:01. The description is as above.
The target in the next test is HLA-A*29:02. The test can be described thus: IEDB peptide-MHC binding, purified MHC/direct/fluorescence; filed as Kd, often an IC50 or EC50 that approximates it; ≥ and ≤ were set here for values at or beyond the usual limits of such assays.
In a further test the target is HLA-B*18:01. The description is as above.
The target of a further test is HLA-B*39:01. The test is described as above.
For the next test, the target named is HLA-B*44:02. The description is as above.
In the next test the target is HLA-B*46:01. The test is described as above.
The next test concerns the target HLA-B*48:01. The test is described as above.
For another test, the target named is HLA-B*57:01. The test is described as above.
The next test concerns the target HLA-A*24:03. The test is described as above. The following applies: source organism: Convict Creek 107 virus.
A further test deals with HLA-A*68:02. The test is described as above. To be noted: source organism: Convict Creek 107 virus.
Test [10] deals with HLA-A*26:01. The test can be described thus: IEDB peptide-MHC binding, purified MHC/competitive/fluorescence; filed as Kd, often an IC50 or EC50 that approximates it; ≥ and ≤ were set here for values at or beyond the usual limits of such assays. To be noted: source organism: Orthohantavirus sinnombreense.
In a further test the target is HLA-B*27:03. The test is described as above. To be noted: source organism: Orthohantavirus sinnombreense.
Test [11] concerns the target HLA-B*51:01. Described as above. The following applies: source organism: Orthohantavirus sinnombreense.
In test [12] the target is HLA-B*08:01. The test can be described thus: IEDB peptide-MHC binding, purified MHC/competitive/radioactivity; filed as Kd, often an IC50 or EC50 that approximates it; ≥ and ≤ were set here for values at or beyond the usual limits of such assays. The following applies: source organism: Dengue virus 4 Philippines/H241/1956.
Test [13] concerns the target HLA-B*15:01. The test can be described thus: IEDB peptide-MHC binding, purified MHC/competitive/fluorescence; filed as Kd, often an IC50 or EC50 that approximates it; ≥ and ≤ were set here for values at or beyond the usual limits of such assays. To be noted: source organism: Salmonella enterica subsp. enterica serovar Typhi.
Test [14] addresses HLA-B*15:17. The test is described as follows: IEDB peptide-MHC binding, purified MHC/direct/fluorescence; filed as Kd, often an IC50 or EC50 that approximates it; ≥ and ≤ were set here for values at or beyond the usual limits of such assays. The following applies: source organism: Influenza A virus (A/duck/Hokkaido/1130/01(H1N1)).
The target of the next test is HLA-A*02:03. The test is described as follows: IEDB peptide-MHC binding, purified MHC/competitive/fluorescence; filed as Kd, often an IC50 or EC50 that approximates it; ≥ and ≤ were set here for values at or beyond the usual limits of such assays. The following applies: source organism: Influenza A virus (A/81/HO).
The mark [15] stands for this setting: source organism: Bacillus licheniformis.
[16] abbreviates: source organism: Escherichia coli O139:H28 str. E24377A.
Setting [17] is: source organism: Mycolicibacterium gilvum.
[18] abbreviates: source organism: Orthohantavirus andesense.
Where [19] appears, read: source organism: Corynebacterium diphtheriae.
[20] abbreviates: source organism: Shigella boydii.
Where [21] appears, read: source organism: Giardia lamblia ATCC 50803.
Setting [22] is: source organism: Bacillus anthracis.
Setting [23] is: source organism: Salmonella enterica subsp. enterica serovar Typhi.
Where [24] appears, read: source organism: Influenza A virus (A/duck/Hokkaido/1130/01(H1N1)).

By Kd is commonly meant a measure of binding affinity in units of concentration. AVSRGTAKL gave a Kd in the test with HLA-B*51:01 [1] (source organism: Alkhumra hemorrhagic fever virus) not below 20 µM.

Regarding KTIECSKEL, the Kd with HLA-A*01:01 (setting [15]) was not below 20 µM; in the test with HLA-A*02:01 (setting [15]) it was 0.235 µM; in the test with HLA-A*03:01 [2] (setting [15]), not below 20 µM; with HLA-A*11:01 (setting [15]), not below 20 µM; in the test with HLA-A*26:01 [3] it was not below 20 µM; with HLA-A*31:01 [4] (setting [15]) it was 5.6 µM. For the same sequence, the Kd with HLA-A*69:01 (setting [15]) was not below 20 µM; in the test with HLA-B*07:02 (setting [15]), not below 20 µM; with HLA-B*08:01 [5] (setting [15]), not below 20 µM; with HLA-B*15:01 [6] (setting [15]), 0.468 µM; in the test with HLA-B*27:05 (setting [15]), not below 20 µM; with HLA-B*40:01 (setting [15]), not below 20 µM. Moreover, the Kd in the test with HLA-B*58:01 (setting [15]) was 0.279 µM; with HLA-B*15:17 [7] (setting [15]), 0.0099 µM.

For GINWKHPKR, the figures for the Kd with HLA-A*03:01 [8] (setting [16]) and with HLA-A*31:01 [9] (setting [16]) were 1.57 µM and 0.199 µM, respectively.

As to PHDPDFLVL, the Kd with HLA-A*01:01 (setting [17]), with HLA-A*02:01 (setting [17]), with HLA-A*03:01 [2] (setting [17]), in the test with HLA-A*29:02 (setting [17]), in the test with HLA-A*31:01 [4] (setting [17]) and with HLA-A*69:01 (setting [17]) was not below 20 µM each time. The Kd was not below 20 µM in the test with HLA-B*15:01 [6] (setting [17]); not below 20 µM with HLA-B*18:01 (setting [17]); not below 20 µM in the test with HLA-B*27:05 (setting [17]); 6.76 µM in the test with HLA-B*39:01 (source organism: Mycolicibacterium gilvum PYR-GCK); not below 20 µM with HLA-B*40:01 (setting [17]); not below 20 µM in the test with HLA-B*44:02 (setting [17]). The Kd with HLA-B*46:01 (setting [17]), with HLA-B*48:01 (setting [17]), in the test with HLA-B*57:01 (setting [17]) and in the test with HLA-B*58:01 (setting [17]) was not below 20 µM throughout.

As for YLQAKSQVL, the Kd with HLA-A*01:01 (setting [18]), in the test with HLA-A*03:01 [2] (setting [18]), in the test with HLA-A*11:01 (setting [18]), with HLA-A*24:03, in the test with HLA-A*29:02 (setting [18]) and with HLA-A*31:01 [4] (setting [18]) was not below 20 µM each time. Besides, the Kd in the test with HLA-A*68:02 is not below 20 µM; in the test with HLA-A*69:01 (setting [18]) it was not below 20 µM; with HLA-B*08:01 [5] (setting [18]), 0.471 µM; in the test with HLA-B*18:01 (setting [18]) it was not below 20 µM; with HLA-B*27:05 (setting [18]), not below 20 µM; in the test with HLA-B*40:01 (setting [18]), not below 20 µM. Moreover, the Kd with HLA-B*46:01 (setting [18]), with HLA-B*57:01 (setting [18]), with HLA-B*58:01 (setting [18]), with HLA-A*26:01 [10], with HLA-B*15:17 [7] (source organism: Orthohantavirus sinnombreense) and with HLA-B*27:03 was not below 20 µM throughout. Further, the Kd with HLA-B*51:01 [11] was not below 20 µM.

For the sequence VERRLVKVL, the Kd with HLA-A*01:01 (setting [19]), with HLA-A*02:01 (setting [19]), with HLA-A*03:01 [2] (setting [19]), with HLA-A*11:01 (setting [19]), with HLA-A*29:02 (setting [19]) and with HLA-A*31:01 [4] (setting [19]) was not below 20 µM throughout. Moreover, the Kd was not below 20 µM with HLA-B*07:02 (setting [19]); 7 µM with HLA-B*08:01 [5] (setting [19]); not below 20 µM in the test with HLA-B*27:05 (setting [19]); not below 20 µM in the test with HLA-B*44:02 (setting [19]); not below 20 µM with HLA-B*46:01 (setting [19]); not below 20 µM in the test with HLA-B*48:01 (setting [19]). For the same sequence, the Kd with HLA-B*57:01 (setting [19]) and with HLA-B*58:01 (setting [19]) was not below 20 µM in each case.

Regarding PLSRLFYPK, the values for the Kd with HLA-A*03:01 [2] (setting [20]), with HLA-A*11:01 (setting [20]) and with HLA-A*31:01 [9] (setting [20]) were 0.649 µM, 0.129 µM and 0.0748 µM, respectively.

Sequence FHGAKEIAL gave an equilibrium dissociation constant (Kd) with HLA-B*39:01 (source organism: Influenza A virus H3N2) of 0.175 µM.

MPVMKRYSA: the equilibrium dissociation constant (Kd) with HLA-B*51:01 [1] (source organism: dengue virus type 4) is not below 20 µM; with HLA-B*08:01 [12] it was 0.00838 µM.

With TVDSLSPLK, the Kd was 0.364 µM with HLA-A*03:01 [2] (setting [21]), 0.0123 µM with HLA-A*11:01 (setting [21]) and not below 20 µM in the test with HLA-A*31:01 [9] (setting [21]).

For GTGAGVPSK, the values for the Kd with HLA-A*03:01 [2] (setting [22]), with HLA-A*11:01 (setting [22]) and in the test with HLA-A*31:01 [9] (source organism: Bacillus anthracis str. A0488) were 1.14 µM, 0.0113 µM and 0.644 µM, respectively.

Turning to MTDAIRTLK, the values for the Kd with HLA-A*03:01 [8] (setting [23]), in the test with HLA-A*31:01 [9] (setting [23]) and with HLA-B*15:01 [13] were 0.134 µM, 2.31 µM and not below 20 µM, respectively.

Turning to ELRSRYWAI, the Kd in the test with HLA-A*01:01 (setting [24]) was not below 20 µM; with HLA-A*02:01 (setting [24]), not below 20 µM; with HLA-A*03:01 [2] (setting [24]), not below 20 µM; with HLA-A*11:01 (setting [24]), not below 20 µM; in the test with HLA-A*69:01 (setting [24]), 0.151 µM; with HLA-B*07:02 (setting [24]), not below 20 µM. Also, the Kd with HLA-B*15:01 [6] (setting [24]) is not below 20 µM; with HLA-B*15:17 [14], not below 20 µM; in the test with HLA-B*18:01 (setting [24]) it was 2.45 µM; with HLA-B*27:05 (setting [24]), not below 20 µM; in the test with HLA-B*40:01 (setting [24]), not below 20 µM; with HLA-B*46:01 (setting [24]) it was not below 20 µM. The dissociation constant Kd in the test with HLA-B*48:01 (setting [24]), in the test with HLA-B*51:01 [1] (setting [24]), with HLA-B*57:01 (setting [24]), in the test with HLA-B*58:01 (setting [24]), in the test with HLA-A*02:03 and in the test with HLA-A*31:01 [9] (source organism: Influenza A virus (A/81/HO)) was not below 20 µM throughout.

EALAMCLPY: the figures for the Kd with HLA-B*07:02 (setting [21]) and with HLA-B*51:01 [1] (setting [21]) were 5.2 µM and not below 20 µM, respectively.
